Assay results as given in the Human Domainome abundance scans (Beltran et al. 2025).
± gives the uncertainty stated by the source.

B1: Pituitary-specific positive transcription factor 1, residues 130 to 198; numbered along this chain, P28069 (parent)
chain: RELEKFANEFKVRRIKLGYTQTNVGEALAAVHGSEFSQTTICRFENLQLSFKNACKLKAILSKWLEEAE

Variants of: B1
Experiment: abundance fitness (aPCA) (normalised: wild type 0, dead -1); higher = more abundant; growth selection in yeast, the domain comes from the species named
Settings: Homo sapiens

Row | Variant | abundance fitness
1 | L47K | -0.064 ± 0.057
2 | R13G | -0.69 ± 0.12
3 | K52G | -0.149 ± 0.05
4 | K56V | -0.135 ± 0.069
5 | L49W | -1.15 ± 0.43
6 | G33K | -0.85 ± 0.28
7 | N53C | -0.013 ± 0.086
8 | R43D | 0.112 ± 0.16
9 | S34Q | 0.057 ± 0.057
10 | N23I | -0.539 ± 0.17
11 | F10H | -0.762 ± 0.34
12 | F51C | -0.534 ± 0.13
13 | A29G | -0.416 ± 0.13
14 | G25D | -0.647 ± 0.12
15 | L57T | -0.262 ± 0.064
16 | A7L | -0.975 ± 0.13
17 | S62L | -0.144 ± 0.055
18 | E2T | -0.334 ± 0.12
19 | Y19I | -0.382 ± 0.21
20 | A68K | 0.047 ± 0.15
21 | V12W | -0.56 ± 0.22
22 | Q21E | -0.549 ± 0.23
23 | A68F | -0.747 ± 0.23
24 | I60Y | -0.347 ± 0.14

Row | Variant | abundance fitness
25 | I60V | -0.024 ± 0.084
26 | K11W | -0.911 ± 0.28
27 | K58L | -0.848 ± 0.081
28 | A59N | 0.078 ± 0.076
29 | L49G | -0.632 ± 0.11
30 | S37A | -0.607 ± 0.076
31 | N8L | 0.093 ± 0.072
32 | K11Q | -0.507 ± 0.064
33 | C42H | -0.001 ± 0.11
34 | E67F | -0.49 ± 0.14
35 | L49R | -0.862 ± 0.12
36 | F51E | 0.144 ± 0.13
37 | L47P | -0.804 ± 0.25
38 | T40D | 0.308 ± 0.2
39 | E67H | -0.34 ± 0.23
40 | A54L | -0.033 ± 0.12
41 | R14Q | -0.74 ± 0.35
42 | G25M | -0.468 ± 0.11
43 | V24C | -0.337 ± 0.18
44 | L47Y | -0.428 ± 0.094
45 | S37N | 0.117 ± 0.069
46 | E66K | -0.296 ± 0.099
47 | L49S | -0.568 ± 0.079
48 | K52L | -0.369 ± 0.068

Row | Variant | abundance fitness
49 | N46S | -0.085 ± 0.089
50 | G25Q | -0.171 ± 0.074
51 | N46C | -0.787 ± 0.42
52 | V31W | -0.392 ± 0.09
53 | L49A | -0.964 ± 0.19
54 | L17V | -0.785 ± 0.12
55 | F10R | -0.738 ± 0.12
56 | L61G | -0.757 ± 0.11
57 | L49D | -0.847 ± 0.31
58 | Q48L | -0.406 ± 0.065
59 | N46G | -0.311 ± 0.094
60 | G18S | -0.838 ± 0.16
61 | Q48K | -0.476 ± 0.18
62 | F10A | -0.803 ± 0.17
63 | R13K | -0.308 ± 0.13
64 | E4C | -0.552 ± 0.21
65 | R13L | -0.913 ± 0.35
66 | C55V | 0.15 ± 0.039
67 | V31C | -0.258 ± 0.097
68 | R14G | -0.8 ± 0.17
69 | K56H | -0.34 ± 0.095
70 | L57K | -0.497 ± 0.16
71 | K11R | -0.021 ± 0.051
72 | E67V | -0.39 ± 0.073

Row | Variant | abundance fitness
73 | S34L | -0.253 ± 0.057
74 | E45G | -0.961 ± 0.17
75 | E45H | -1.17 ± 0.32
76 | C42M | 0.311 ± 0.2
77 | K63I | -0.326 ± 0.094
78 | A59V | 0.116 ± 0.048
79 | V24T | -0.625 ± 0.34
80 | E67W | -0.203 ± 0.1
81 | L57G | -0.507 ± 0.061
82 | S62V | -0.167 ± 0.064
83 | C42K | 0.148 ± 0.14
84 | E35M | -0.162 ± 0.071
85 | Q21H | -0.164 ± 0.12
86 | G25C | 0.005 ± 0.059
87 | L47F | -0.562 ± 0.12
88 | E69R | -0.706 ± 0.13
89 | I15D | -0.89 ± 0.26
90 | N8Q | 0.12 ± 0.17
91 | I41T | -0.892 ± 0.39
92 | T20R | -0.941 ± 0.13
93 | E9K | -0.323 ± 0.091
94 | E66Y | -0.304 ± 0.12
95 | V24K | -0.846 ± 0.47
96 | L57S | -0.534 ± 0.08

Row | Variant | abundance fitness
97 | N8K | 0.155 ± 0.12
98 | N8P | -0.783 ± 0.37
99 | A29L | -0.829 ± 0.16
100 | T40V | -0.314 ± 0.083
101 | E69L | -0.719 ± 0.28
102 | T40F | -0.911 ± 0.25
103 | Q21Y | -0.325 ± 0.081
104 | L3K | -0.718 ± 0.26
105 | S34I | -0.171 ± 0.1
106 | T20C | -0.871 ± 0.21
107 | E66C | -0.108 ± 0.077
108 | S62R | -0.377 ± 0.071
109 | E26A | -0.332 ± 0.49
110 | T39E | 0.255 ± 0.077
111 | S37W | -0.925 ± 0.16
112 | F10Y | -0.518 ± 0.23
113 | K56M | -0.268 ± 0.05
114 | S62C | -0.3 ± 0.062
115 | T39C | -1.07 ± 0.43
116 | C55I | 0.046 ± 0.12
117 | I41S | -0.866 ± 0.15
118 | K58H | -0.4 ± 0.14
119 | F51A | -0.174 ± 0.099
120 | E26H | -0.486 ± 0.12

Row | Variant | abundance fitness
121 | F6K | -0.756 ± 0.18
122 | A59Q | -0.045 ± 0.064
123 | C42Y | -0.243 ± 0.12
124 | K52C | -0.753 ± 0.49
125 | A29M | -0.402 ± 0.11
126 | F44N | -1.11 ± 0.38
127 | K56S | -0.23 ± 0.049
128 | K56N | -0.131 ± 0.11
129 | V31T | -0.021 ± 0.068
130 | E66H | -0.334 ± 0.29
131 | W64Q | -0.643 ± 0.14
132 | Y19E | -0.934 ± 0.33
133 | L65A | -0.772 ± 0.1
134 | A27L | -0.315 ± 0.077
135 | T40S | -0.348 ± 0.091
136 | N53Q | 0 ± 0.084
137 | R13P | -0.898 ± 0.27
138 | V12K | -0.071 ± 0.088
139 | K58W | -0.342 ± 0.11
140 | L28I | -0.276 ± 0.34
141 | V24L | -0.361 ± 0.074
142 | V31I | 0.027 ± 0.073
143 | G18V | -0.912 ± 0.16
144 | F44V | -0.974 ± 0.12

Row | Variant | abundance fitness
145 | T40E | -0.193 ± 0.21
146 | A29S | -0.119 ± 0.069
147 | Y19V | -0.855 ± 0.34
148 | A30C | -0.127 ± 0.1
149 | S37M | -0.823 ± 0.11
150 | L28E | -0.718 ± 0.21
151 | A29F | -0.509 ± 0.12
152 | I60H | -0.437 ± 0.17
153 | E2G | -0.373 ± 0.072
154 | L65R | -0.748 ± 0.11
155 | G33H | -0.536 ± 0.31
156 | E26F | -0.849 ± 0.29
157 | R13S | -0.924 ± 0.26
158 | V24A | -0.728 ± 0.26
159 | E35W | -0.265 ± 0.1
160 | E69P | -0.433 ± 0.23
161 | K52T | 0.036 ± 0.11
162 | K11C | -0.795 ± 0.2
163 | E4F | -0.316 ± 0.087
164 | E4G | -0.848 ± 0.35
165 | I15P | -1.03 ± 0.21
166 | L17Q | -0.821 ± 0.26
167 | K52P | -0.077 ± 0.093
